The record followed here is PMC9756944.

This series has as its system HupA (HU homologue) (Streptomyces coelicolor). The experiment in a line: EMSA (agarose). To be noted: Buffer B: 50 mM NaH2PO4 pH 8.1, 300 mM NaCl, 10% glycerol, 0-40 uM HupA, 120 ng (3.6 nM) pUC19, 3 min room temperature then 15 min 37 C, 1% agarose in TAE ….

For the substance “pUC19 relaxed by E. coli topoisomerase I”, where the note is “relaxed by E. coli topoisomerase I (NEB), enzyme inactivated at 65 C”, the binding was found to be 40 µM.
The substance pUC19 negatively supercoiled yielded a binding (bound at 15 uM HupA, 3.6 nM plasmid, 300 mM NaCl) of 15 µM.
